Experimental data reported in article PMC4361902 (Nature, 2014).

How the values were obtained:
cryo-EM structure = target: the molecule itself; experiment: cryo-EM structure
crystal structure = target: the molecule itself; experiment: crystal structure

B1: TolC (tolC1392, coexpressed from pRSFduet-1-acrA-polyGS-acrZHis5-tolC1392) (natural protein)
chain: ENLMQVYQQARLSNPELRKSAADRDAAFEKINEARSPLLPQLGLGADYTYSNGYRDANGINSNATSASLQLTQSIFDMSKWRALTLQEKAAGIQDVTYQTDQQTLILNTATAYFNVLNAIDVLSYTQAQKEAIYRQLDQTTQRFNVGLVAITDVQNARAQYDTVLANEVTARNNLDNAVEQLRQITGNYYPELAALNVENFKTDKPQPVNALLKEAEKRNLSLLQARLSQDLAREQIRQAQDGHLPTLDLTASTGISDTSYSGSKTRGAAGTQYDDSNMGQNKVGLSFSLPIYQGGMVNSQVKQAQYNFVGASEQLESAHRSVVQTVRSSFNNINASISSINAYKQAVVSAQSSLDAMEAGYSVGTRTIVDVLDATTTLYNAKQELANARYNYLINQLNIKSALGTLNEQDLLALNNALSKPVSTNPENVAPQTPEQNAIAD
cryo-EM structure
  stoichiometry N: 3

B2: AcrB as it stands in the efflux pump assembly (AcrB moiety of the AcrA-AcrB fusion) (domain or fragment, E. coli, UniProt P31224 1-1047, looked up)
chain: MPNFFIDRPIFAWVIAIIIMLAGGLAILKLPVAQYPTIAPPAVTISASYPGADAKTVQDTVTQVIEQNMNGIDNLMYMSSNSDSTGTVQITLTFESGTDADIAQVQVQNKLQLAMPLLPQEVQQQGVSVEKSSSSFLMVVGVINTDGTMTQEDISDYVAANMKDAISRTSGVGDVQLFGSQYAMRIWMNPNELNKFQLTPVDVITAIKAQNAQVAAGQLGGTPPVKGQQLNASIIAQTRLTSTEEFGKILLKVNQDGSRVLLRDVAKIELGGENYDIIAEFNGQPASGLGIKLATGANALDTAAAIRAELAKMEPFFPSGLKIVYPYDTTPFVKISIHEVVKTLVEAIILVFLVMYLFLQNFRATLIPTIAVPVVLLGTFAVLAAFGFSINTLTMFGMVLAIGLLVDDAIVVVENVERVMAEEGLPPKEATRKSMGQIQGALVGIAMVLSAVFVPMAFFGGSTGAIYRQFSITIVSAMALSVLVALILTPALCATMLKPIAKGDHGEGKKGFFGWFNRMFEKSTHHYTDSVGGILRSTGRYLVLYLIIVVGMAYLFVRLPSSFLPDEDQGVFMTMVQLPAGATQERTQKVLNEVTHYYLTKEKNNVESVFAVNGFGFAGRGQNTGIAFVSLKDWADRPGEENKVEAITMRATRAFSQIKDAMVFAFNLPAIVELGTATGFDFELIDQAGLGHEKLTQARNQLLAEAAKHPDMLTSVRPNGLEDTPQFKIDIDQEKAQALGVSINDINTTLGAAWGGSYVNDFIDRGRVKKVYVMSEAKYRMLPDDIGDWYVRAADGQMVPFSAFSSSRWEYGSPRLERYNGLPSMEILGQAAPGKSTGEAMELMEQLASKLPTGVGYDWTGMSYQERLSGNQAPSLYAISLIVVFLCLAALYESWSIPFSVMLVVPLGVIGALLAATFRGLTNDVYFQVGLLTTIGLSAKNAILIVEFAKDLMDKEGKGLIEATLDAVRMRLRPILMTSLAFILGVMPLVISTGAGSGAQNAVGTGVMGGMVTATVLAIFFVPVFFVVVRRRFSRKNEDIEHSHTVD
cryo-EM structure
  stoichiometry N: 3

B3: AcrB with the C-terminal histidines removed (pET21a-acrBΔHis) (natural protein, E. coli, UniProt P31224 1-1047, looked up)
chain: MPNFFIDRPIFAWVIAIIIMLAGGLAILKLPVAQYPTIAPPAVTISASYPGADAKTVQDTVTQVIEQNMNGIDNLMYMSSNSDSTGTVQITLTFESGTDADIAQVQVQNKLQLAMPLLPQEVQQQGVSVEKSSSSFLMVVGVINTDGTMTQEDISDYVAANMKDAISRTSGVGDVQLFGSQYAMRIWMNPNELNKFQLTPVDVITAIKAQNAQVAAGQLGGTPPVKGQQLNASIIAQTRLTSTEEFGKILLKVNQDGSRVLLRDVAKIELGGENYDIIAEFNGQPASGLGIKLATGANALDTAAAIRAELAKMEPFFPSGLKIVYPYDTTPFVKISIHEVVKTLVEAIILVFLVMYLFLQNFRATLIPTIAVPVVLLGTFAVLAAFGFSINTLTMFGMVLAIGLLVDDAIVVVENVERVMAEEGLPPKEATRKSMGQIQGALVGIAMVLSAVFVPMAFFGGSTGAIYRQFSITIVSAMALSVLVALILTPALCATMLKPIAKGDHGEGKKGFFGWFNRMFEKSTHHYTDSVGGILRSTGRYLVLYLIIVVGMAYLFVRLPSSFLPDEDQGVFMTMVQLPAGATQERTQKVLNEVTHYYLTKEKNNVESVFAVNGFGFAGRGQNTGIAFVSLKDWADRPGEENKVEAITMRATRAFSQIKDAMVFAFNLPAIVELGTATGFDFELIDQAGLGHEKLTQARNQLLAEAAKHPDMLTSVRPNGLEDTPQFKIDIDQEKAQALGVSINDINTTLGAAWGGSYVNDFIDRGRVKKVYVMSEAKYRMLPDDIGDWYVRAADGQMVPFSAFSSSRWEYGSPRLERYNGLPSMEILGQAAPGKSTGEAMELMEQLASKLPTGVGYDWTGMSYQERLSGNQAPSLYAISLIVVFLCLAALYESWSIPFSVMLVVPLGVIGALLAATFRGLTNDVYFQVGLLTTIGLSAKNAILIVEFAKDLMDKEGKGLIEATLDAVRMRLRPILMTSLAFILGVMPLVISTGAGSGAQNAVGTGVMGGMVTATVLAIFFVPVFFVVVRRRFSRKNEDIEHSHTVD
Crystal structure
  stoichiometry N: 3
